Target: His6-RpoS (sigma S) (Salmonella enterica serovar Typhimurium 14028s) (UniProt D0ZVL4)
Experiment: EMSA
Conditions: LightShift chemiluminescent EMSA kit, 20 uL: 1 ng biotin-DNA, 2 uL binding buffer, 1 ug poly(dI.dC), 1 uL 50% glycerol, 1 uL 1 M KCl (about 50 mM added)

His6-RpoS (sigma S) (Salmonella enterica serovar Typhimurium 14028s), sequence (D0ZVL4 whole entry): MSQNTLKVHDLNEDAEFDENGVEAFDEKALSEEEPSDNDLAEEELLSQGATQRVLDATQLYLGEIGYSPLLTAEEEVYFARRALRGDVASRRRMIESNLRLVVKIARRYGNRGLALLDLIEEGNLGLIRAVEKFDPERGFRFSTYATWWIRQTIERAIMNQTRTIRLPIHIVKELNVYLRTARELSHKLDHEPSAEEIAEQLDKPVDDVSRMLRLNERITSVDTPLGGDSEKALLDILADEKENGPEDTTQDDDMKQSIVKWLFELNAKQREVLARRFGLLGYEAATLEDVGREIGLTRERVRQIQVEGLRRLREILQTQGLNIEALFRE

Sequence	binding
ACTTCCCCGAGCTTAAAAATGACCCAAACGGGTGTACCGATCTTAGTCTGCTGGCTGGCGCTGTAGCAAAGTTTAATGTCATCGGTAACCGGCTGGATTTAGCGATCCCTCAAATCGCG (double strand) [sthC promoter]	binds
ACTCGTATGTTTATCATGCAACCTATAAATAAATGTTATATTCAATAACTAATATTACATCTCAAATTCTCTCAAGTATGTCATAACGCTGCAGCAAATAAAAGTCAGTCAGC (double strand) [waaZ promoter]	binds
